Data from PMC3919030.

What was measured:
Conditions in all cases: remark: other sources report otherwise
[1] = biological target: T1, S. cerevisiae Vps4p (wild type) (S. cerevisiae), P52917; experiment: SEC
T1 chain: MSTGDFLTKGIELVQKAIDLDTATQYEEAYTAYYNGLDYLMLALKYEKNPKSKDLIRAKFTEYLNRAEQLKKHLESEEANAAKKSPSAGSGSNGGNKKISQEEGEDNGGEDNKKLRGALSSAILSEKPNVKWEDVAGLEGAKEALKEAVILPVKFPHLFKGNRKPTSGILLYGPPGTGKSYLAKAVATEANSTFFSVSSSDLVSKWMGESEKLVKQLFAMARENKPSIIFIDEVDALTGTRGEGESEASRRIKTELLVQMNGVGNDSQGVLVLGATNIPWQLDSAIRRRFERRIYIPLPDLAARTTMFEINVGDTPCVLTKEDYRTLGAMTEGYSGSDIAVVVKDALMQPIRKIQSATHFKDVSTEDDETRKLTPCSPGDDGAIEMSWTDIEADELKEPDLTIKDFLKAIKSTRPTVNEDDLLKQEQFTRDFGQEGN

[2] = biological target: T1, S. cerevisiae Vps4p (wild type) (S. …); experiment: SEC
[3] = biological target: T1, S. cerevisiae Vps4p (wild type) (S. …); experiment: SEC
[4] = biological target: T1, S. cerevisiae Vps4p (wild type) (S. …); experiment: SEC
[5] = biological target: T1, S. cerevisiae Vps4p (wild type) (S. …); experiment: AUC
[6] = biological target: T1, S. cerevisiae Vps4p (wild type) (S. …); experiment: AUC

Measured: stoichiometry N

B1: S. cerevisiae Vps4p (wild type), P52917 1-437 (enzyme)
chain: T1 chain
6: all assays above
